This test deals with T1, Prostate-Specific Antigen (PSA) (human, UniProt P07288 25-261).
T1 construct: Used biotinylated or PE-labelled in flow cytometry and coated on plates in ELISA; also called PSA antigen
In words: method and antibody format not stated.

T1 sequence (P07288 25-261 limits assumed): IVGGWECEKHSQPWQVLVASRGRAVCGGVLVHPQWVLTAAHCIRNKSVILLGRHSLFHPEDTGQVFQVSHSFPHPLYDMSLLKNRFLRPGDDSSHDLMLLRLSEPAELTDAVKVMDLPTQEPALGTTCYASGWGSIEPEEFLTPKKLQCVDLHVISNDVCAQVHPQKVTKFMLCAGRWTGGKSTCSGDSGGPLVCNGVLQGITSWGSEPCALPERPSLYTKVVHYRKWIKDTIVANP

B1: novel anti-PSA antibody (antibody, V domains shown)
VH: EVQLLESGGGLVQPGGSLRLSCAASGFTVSNYAMSWVRQAPGKGLEWVGDIYPTSGYTDYADSVKGRFTISRDNSKNTLYLQMNSLRAEDTAVYYCARWGYDYKYVASEGSWLFDYWGQGTLVTVSS
VL: DIQMTQSPSSLSASVGDRVTITCRASQVSSTSLNWYQQKPGKAPKLLIYGASNLASGVPSRFSGSGSGTDFTLTISSLQPEDFATYYCQQYGHPPYTFGQGTKVEIK
notes: Identified from a single chain library
What is called Kd is the constant that tells how readily two partners part at equilibrium. B1 gave a Kd of 0.08 nM.

For the origin of these results see patent US20160304856A1 (AVANTGEN, published 2016).
